Reference: the supplement of paper PMC10126150
± gives the standard deviation of the averaged measurements.

The sequences below were run on ATP (assay: switch fluorescence ratio, 500 uM ATP over buffer (Cy3 cluster intensity, sum of 5 cycles each) (fold (ratio)); higher = stronger signal-on switching upon ATP binding; sequences stand for … in TCGTCGGCAGCGTCAGATGTGTATAAGAGACAGTTTTTTTTTTTTTTTTTTTTTTTTT…TC). Settings: aptamer strand: ATP DNA aptamer (quencher-CACCTGGGGGAGTATTGCGGAGGAAGG + anchor), 100 nM annealed; ATP concentration: 500 uM.
Outline: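 Exposure to 500 uM ATP lasted 15 min at 22 °C before imaging, and a selection-buffer image was taken beforehand, for Cy3-labelled switching-strand clusters on a modified Illumina MiSeq flow-cell annealed to 100 nM quencher-labelled ATP aptamer. Five buffer/ATP cycles were run with NaOH stripping and re-annealing between them. The fluorescence ratio per cluster is summed target-cycle over summed buffer-cycle Cy3 intensity, averaged per switch-domain sequence. Clusters outside 100-1000 RFU were excluded.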
GGGCAGGGGC showed a switch fluorescence ratio of 1 ± 0.025.
Sequence TCTTGAAGGT has a switch fluorescence ratio of 0.985 ± 0.0053.
ATAGAGGAGT was tested, and the switch fluorescence ratio was 0.998 ± 0.032.
CGGGGTGCTA was tested, and the switch fluorescence ratio was 1.007 ± 0.0077.
For AAGCATCACG, the switch fluorescence ratio was 1.07 ± 0.011.
For CTGGGAGTAC, the switch fluorescence ratio was 1.04 ± 0.051.
Work on TTCCTCCCGT yielded a switch fluorescence ratio of 2.01 ± 0.95.
Work on GGGGGGTCGG yielded a switch fluorescence ratio of 1 ± 0.024.
GAGTATGTGC gave a switch fluorescence ratio of 0.9691 ± 0.0066.
GATCAATTGG was tested, and the switch fluorescence ratio was 1.02 ± 0.026.
CACTTGGTGG was tested, and the switch fluorescence ratio was 0.96 ± 0.038.
AGGCCTTCAG gave a switch fluorescence ratio of 0.9915 ± 0.0083.
GCGCGGGGGT showed a switch fluorescence ratio of 1.08 ± 0.032.
AGTCATGTGC was tested, and the switch fluorescence ratio was 0.979 ± 0.038.
In the case of GTATGGAGGG, the switch fluorescence ratio is reported as 1.02 ± 0.029.
In the case of ATAAAGTTCC, the switch fluorescence ratio is reported as 1.13 ± 0.038.
GGGGACTGAG gave a switch fluorescence ratio of 0.983 ± 0.029.
GTGGGTTGGC gave a switch fluorescence ratio of 1.03 ± 0.043.
Work on GGTATATAGG yielded a switch fluorescence ratio of 1.01 ± 0.027.
Sequence TTATTTATAT has a switch fluorescence ratio of 0.971 ± 0.013.
TAGGGCAGTA showed a switch fluorescence ratio of 0.99 ± 0.046.
GATACTTGGG was tested, and the switch fluorescence ratio was 0.989 ± 0.035.
GCCATTTGAC showed a switch fluorescence ratio of 1.02 ± 0.042.
With AAGGGTCCCG the switch fluorescence ratio was 0.9735 ± 0.0027.
Sequence CATTGCGATT has a switch fluorescence ratio of 1.13 ± 0.14.
Sequence CGTCGGAAAG has a switch fluorescence ratio of 1.01 ± 0.024.
TGGAGTAGC was tested, and the switch fluorescence ratio was 1.07 ± 0.078.
In the case of CGTTCCGGGC, the switch fluorescence ratio is reported as 1.2 ± 0.12.
In the case of TGTGGTGGGA, the switch fluorescence ratio is reported as 0.98 ± 0.02.
AAGAGAGTTT showed a switch fluorescence ratio of 0.9837 ± 0.00066.
In the case of CTTAGCTCTT, the switch fluorescence ratio is reported as 1.03 ± 0.022.
With ATACTATTGT the switch fluorescence ratio was 1.029 ± 0.0037.
GATGATCAG gave a switch fluorescence ratio of 0.978 ± 0.035.
GCGTCTTTGG gave a switch fluorescence ratio of 0.988 ± 0.026.
For GGATAGGGTG, the switch fluorescence ratio was 1.06 ± 0.076.
Sequence GCGTATACGG has a switch fluorescence ratio of 1.01 ± 0.028.
GCCACAGTAC showed a switch fluorescence ratio of 3.04 ± 0.098.
Work on AGTGGGGCTT yielded a switch fluorescence ratio of 0.985 ± 0.043.
AGAATATTAG showed a switch fluorescence ratio of 0.987 ± 0.037.
TCGCTGAATA showed a switch fluorescence ratio of 1.04 ± 0.052.
For CGAGGGTGGC, the switch fluorescence ratio was 0.96 ± 0.11.
TGGATATGTG showed a switch fluorescence ratio of 1.01 ± 0.018.
With CTGGGGTACT the switch fluorescence ratio was 1.08 ± 0.056.
TGCGGTTTGA gave a switch fluorescence ratio of 1.01 ± 0.012.
With CGACTTGGTA the switch fluorescence ratio was 0.9766 ± 0.0011.
For TTTCACAGCG, the switch fluorescence ratio was 1.01 ± 0.011.
Work on GGGGCTATGG yielded a switch fluorescence ratio of 1.02 ± 0.045.
ATCGGGTCGA was tested, and the switch fluorescence ratio was 1 ± 0.023.
In the case of TGGAGTCCAT, the switch fluorescence ratio is reported as 1.026 ± 0.0098.
In the case of GATTTACAGC, the switch fluorescence ratio is reported as 1.02 ± 0.054.
In the case of GATATGGGGT, the switch fluorescence ratio is reported as 0.9828 ± 0.0085.
Work on TTCTTTCCGT yielded a switch fluorescence ratio of 1.06 ± 0.026.
TAAGTTATGT gave a switch fluorescence ratio of 1.01 ± 0.015.
Work on TATTATACCT yielded a switch fluorescence ratio of 1.29 ± 0.053.
For CGATAGGTAG, the switch fluorescence ratio was 0.994 ± 0.018.
With GGGGAATAGG the switch fluorescence ratio was 0.9962 ± 0.0084.
For CTGTGGCTTT, the switch fluorescence ratio was 1.016 ± 0.0096.
AGCCAAAATA was tested, and the switch fluorescence ratio was 1.04 ± 0.017.
In the case of ATTATGCCG, the switch fluorescence ratio is reported as 0.993 ± 0.06.
Sequence TTGGCATGCG has a switch fluorescence ratio of 1.01 ± 0.021.
With ACGCCTTATT the switch fluorescence ratio was 1.03 ± 0.02.
TGTCCGGTTT showed a switch fluorescence ratio of 1.25 ± 0.36.
For GGACGAATGG, the switch fluorescence ratio was 1.02 ± 0.013.
TAGGGTCTGG gave a switch fluorescence ratio of 0.991 ± 0.04.
For ATGTTCAGTG, the switch fluorescence ratio was 0.985 ± 0.03.
Work on TGTTTTTTCG yielded a switch fluorescence ratio of 0.992 ± 0.024.
In the case of TATCACCATA, the switch fluorescence ratio is reported as 1.04 ± 0.079.
Work on TAAGGGGCAT yielded a switch fluorescence ratio of 1.04 ± 0.093.
Sequence TTGCGGGGT has a switch fluorescence ratio of 1.02 ± 0.011.
In the case of GGGGGGCGGA, the switch fluorescence ratio is reported as 1.01 ± 0.039.
TCATTGAGCG gave a switch fluorescence ratio of 0.981 ± 0.04.
Sequence CGCTTTTTTT has a switch fluorescence ratio of 1.01 ± 0.025.
Work on GAGGGGTAAT yielded a switch fluorescence ratio of 0.986 ± 0.012.
For GAAGTAGGGA, the switch fluorescence ratio was 1 ± 0.064.
ATTCGGGGAC gave a switch fluorescence ratio of 1.058 ± 0.009.
Sequence CCTGTTTTAT has a switch fluorescence ratio of 0.9953 ± 0.0051.
Work on TGCTCGGGGA yielded a switch fluorescence ratio of 1.021 ± 0.0023.
TGGGGGCCTG gave a switch fluorescence ratio of 0.99 ± 0.033.
With TATTAGGGCA the switch fluorescence ratio was 0.9717 ± 0.0097.
With TGTACTGGGC the switch fluorescence ratio was 1.06 ± 0.049.
Work on GCTAACACGG yielded a switch fluorescence ratio of 1.048 ± 0.0053.
In the case of AGCTGGGGGT, the switch fluorescence ratio is reported as 1.02 ± 0.06.
ACATGAAGCA was tested, and the switch fluorescence ratio was 1.06 ± 0.025.
For TTATTGACAT, the switch fluorescence ratio was 0.995 ± 0.021.
GGTGGGTCGG showed a switch fluorescence ratio of 0.98 ± 0.036.
CTGGTTCGGT gave a switch fluorescence ratio of 1.01 ± 0.037.
In the case of TTGTCTGGGC, the switch fluorescence ratio is reported as 0.984 ± 0.032.
With AGATATTTTG the switch fluorescence ratio was 0.988 ± 0.039.
In the case of TGCTAACTTT, the switch fluorescence ratio is reported as 0.999 ± 0.052.
With GACTTGGTAG the switch fluorescence ratio was 0.9884 ± 0.0053.
In the case of TTGGAGTTG, the switch fluorescence ratio is reported as 1.02 ± 0.048.
Work on CGCCGGCACT yielded a switch fluorescence ratio of 0.992 ± 0.027.
Sequence ATTATTTTGC has a switch fluorescence ratio of 0.9464 ± 0.0026.
With AATTTATCAG the switch fluorescence ratio was 1.03 ± 0.039.
For TGCTTCATTT, the switch fluorescence ratio was 1.023 ± 0.0018.
With AGATTCGTAC the switch fluorescence ratio was 1.02 ± 0.021.
Work on AGTCTTGCTG yielded a switch fluorescence ratio of 0.989 ± 0.02.
GCTTTGTATA showed a switch fluorescence ratio of 1 ± 0.021.
CGGCAGGGGT was tested, and the switch fluorescence ratio was 1.11 ± 0.064.
In the case of CTGGCGGTCC, the switch fluorescence ratio is reported as 1.028 ± 0.0066.
CTGCTAGTTT showed a switch fluorescence ratio of 0.983 ± 0.016.
TGGGGGTCTA showed a switch fluorescence ratio of 0.971 ± 0.031.
TAACGGTTG showed a switch fluorescence ratio of 0.98 ± 0.017.
TTCTGTCTGT gave a switch fluorescence ratio of 1.05 ± 0.052.
Work on GGTAACATCG yielded a switch fluorescence ratio of 1.003 ± 0.0066.
For GGTAGGGAAC, the switch fluorescence ratio was 0.975 ± 0.029.
Sequence TTGACCGACT has a switch fluorescence ratio of 0.973 ± 0.043.
In the case of CAGTCCCCTT, the switch fluorescence ratio is reported as 1.33 ± 0.44.
AATACTAAGG gave a switch fluorescence ratio of 1.04 ± 0.007.
For TTTTACGTGC, the switch fluorescence ratio was 1.02 ± 0.05.
AAGGTTGAGG was tested, and the switch fluorescence ratio was 0.973 ± 0.034.
TTGGTCTTGA was tested, and the switch fluorescence ratio was 0.994 ± 0.018.
Sequence CCGGTTTTCG has a switch fluorescence ratio of 1.09 ± 0.036.
With ATTTTTGGGG the switch fluorescence ratio was 1.006 ± 0.0088.
For TGGTGCATGC, the switch fluorescence ratio was 0.957 ± 0.019.
Sequence AAAGGTGGTA has a switch fluorescence ratio of 1.02 ± 0.066.
With TTTTGAGTTT the switch fluorescence ratio was 0.984 ± 0.028.
In the case of CGAAAATTCG, the switch fluorescence ratio is reported as 1.03 ± 0.048.
Work on TCCATTGGTG yielded a switch fluorescence ratio of 1.2 ± 0.025.
Work on TTCAAGCTGA yielded a switch fluorescence ratio of 1.09 ± 0.069.
ACTTCACTCG was tested, and the switch fluorescence ratio was 1.42 ± 0.098.
In the case of TTTCCCCATT, the switch fluorescence ratio is reported as 1.012 ± 0.0066.
ATTTTGAATG gave a switch fluorescence ratio of 0.979 ± 0.05.
With GGGTGCGGCA the switch fluorescence ratio was 0.998 ± 0.019.
TGAGCTGATG was tested, and the switch fluorescence ratio was 0.986 ± 0.032.
TTGTGTCAGT gave a switch fluorescence ratio of 0.9885 ± 0.0045.
With GGAAACAGTT the switch fluorescence ratio was 1 ± 0.032.
TTTGTGAGCA showed a switch fluorescence ratio of 1.06 ± 0.08.
TTTGGGCTAT was tested, and the switch fluorescence ratio was 1.021 ± 0.0064.
In the case of GTCTAAGAGT, the switch fluorescence ratio is reported as 0.9786 ± 0.0048.
For GGTGCGGGAT, the switch fluorescence ratio was 0.992 ± 0.043.
In the case of AATGGGGATC, the switch fluorescence ratio is reported as 0.984 ± 0.062.
Sequence GCCCACCACA has a switch fluorescence ratio of 1.08 ± 0.028.
In the case of TTTAATAATG, the switch fluorescence ratio is reported as 0.988 ± 0.036.
GCTAGAATGT gave a switch fluorescence ratio of 1 ± 0.019.
Sequence TGAGGTGCGA has a switch fluorescence ratio of 1.01 ± 0.023.
AGGGGGGGTG showed a switch fluorescence ratio of 1.05 ± 0.11.
Work on CGGACCATAT yielded a switch fluorescence ratio of 1.11 ± 0.017.
With GGCACCTGGG the switch fluorescence ratio was 1.02 ± 0.016.
GGTTAGCGTC showed a switch fluorescence ratio of 1.03 ± 0.059.
For ATGTTTCATT, the switch fluorescence ratio was 0.9727 ± 0.0052.
Work on CAGTACCGGA yielded a switch fluorescence ratio of 0.9935 ± 0.0044.
With AACACATGCG the switch fluorescence ratio was 0.9936 ± 0.0015.
ACTAACTTTC showed a switch fluorescence ratio of 1.1 ± 0.097.
Sequence CCGTTGGGGC has a switch fluorescence ratio of 1.12 ± 0.059.
CGCTGCACGG gave a switch fluorescence ratio of 1.07 ± 0.038.
AGGATGGGAG was tested, and the switch fluorescence ratio was 0.999 ± 0.023.
In the case of GGATGTAGCG, the switch fluorescence ratio is reported as 0.985 ± 0.051.
Sequence TTGCGGCGTG has a switch fluorescence ratio of 0.956 ± 0.024.
In the case of TTGATTAATA, the switch fluorescence ratio is reported as 0.962 ± 0.022.
For TCGGTCTTTT, the switch fluorescence ratio was 0.974 ± 0.029.
In the case of GGTTAATTTT, the switch fluorescence ratio is reported as 1.02 ± 0.028.
Sequence TTAAAGTGCT has a switch fluorescence ratio of 0.984 ± 0.021.
With GGTCGCACGG the switch fluorescence ratio was 1.02 ± 0.026.
TTTGTACATT was tested, and the switch fluorescence ratio was 1.01 ± 0.011.
GCATCGAGGC showed a switch fluorescence ratio of 1.01 ± 0.14.
With AAAAATTGTT the switch fluorescence ratio was 0.986 ± 0.027.
